Assay results published in patent publication US20090092595A1, “Suppression of sPLA2-integrin binding for treating an inflammatory condition” (REGENTS OF THE UNIVERSITY OF CALIFORNIA, priority 2007, published 2009).

Target: T1, αvβ3 on β3-CHO cells (UniProt A0A9J7JSN3+P05106)
T1 construct: expressed in transfected cells; host or cells: CHO
T1 sequence (P05106 27-788): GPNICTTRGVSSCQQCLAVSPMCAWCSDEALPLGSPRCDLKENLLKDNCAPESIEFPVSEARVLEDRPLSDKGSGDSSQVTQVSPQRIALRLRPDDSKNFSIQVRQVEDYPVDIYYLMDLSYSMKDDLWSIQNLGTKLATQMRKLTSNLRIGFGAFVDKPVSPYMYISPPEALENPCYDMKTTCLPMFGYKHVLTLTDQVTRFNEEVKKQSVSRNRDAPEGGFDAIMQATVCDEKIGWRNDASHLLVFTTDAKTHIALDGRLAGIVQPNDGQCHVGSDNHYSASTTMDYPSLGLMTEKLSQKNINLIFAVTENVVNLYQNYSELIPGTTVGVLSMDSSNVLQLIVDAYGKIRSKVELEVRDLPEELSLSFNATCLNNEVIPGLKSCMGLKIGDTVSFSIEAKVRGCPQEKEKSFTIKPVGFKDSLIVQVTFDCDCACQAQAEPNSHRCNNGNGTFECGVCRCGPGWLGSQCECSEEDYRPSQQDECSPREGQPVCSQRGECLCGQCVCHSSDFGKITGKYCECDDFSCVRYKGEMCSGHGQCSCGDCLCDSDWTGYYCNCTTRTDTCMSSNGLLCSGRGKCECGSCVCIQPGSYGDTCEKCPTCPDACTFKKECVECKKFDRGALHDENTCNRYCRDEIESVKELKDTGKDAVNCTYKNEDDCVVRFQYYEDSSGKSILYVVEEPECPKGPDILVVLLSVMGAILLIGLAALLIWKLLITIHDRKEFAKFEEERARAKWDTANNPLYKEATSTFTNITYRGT
T1 sequence (A0A9J7JSN3 31-1043): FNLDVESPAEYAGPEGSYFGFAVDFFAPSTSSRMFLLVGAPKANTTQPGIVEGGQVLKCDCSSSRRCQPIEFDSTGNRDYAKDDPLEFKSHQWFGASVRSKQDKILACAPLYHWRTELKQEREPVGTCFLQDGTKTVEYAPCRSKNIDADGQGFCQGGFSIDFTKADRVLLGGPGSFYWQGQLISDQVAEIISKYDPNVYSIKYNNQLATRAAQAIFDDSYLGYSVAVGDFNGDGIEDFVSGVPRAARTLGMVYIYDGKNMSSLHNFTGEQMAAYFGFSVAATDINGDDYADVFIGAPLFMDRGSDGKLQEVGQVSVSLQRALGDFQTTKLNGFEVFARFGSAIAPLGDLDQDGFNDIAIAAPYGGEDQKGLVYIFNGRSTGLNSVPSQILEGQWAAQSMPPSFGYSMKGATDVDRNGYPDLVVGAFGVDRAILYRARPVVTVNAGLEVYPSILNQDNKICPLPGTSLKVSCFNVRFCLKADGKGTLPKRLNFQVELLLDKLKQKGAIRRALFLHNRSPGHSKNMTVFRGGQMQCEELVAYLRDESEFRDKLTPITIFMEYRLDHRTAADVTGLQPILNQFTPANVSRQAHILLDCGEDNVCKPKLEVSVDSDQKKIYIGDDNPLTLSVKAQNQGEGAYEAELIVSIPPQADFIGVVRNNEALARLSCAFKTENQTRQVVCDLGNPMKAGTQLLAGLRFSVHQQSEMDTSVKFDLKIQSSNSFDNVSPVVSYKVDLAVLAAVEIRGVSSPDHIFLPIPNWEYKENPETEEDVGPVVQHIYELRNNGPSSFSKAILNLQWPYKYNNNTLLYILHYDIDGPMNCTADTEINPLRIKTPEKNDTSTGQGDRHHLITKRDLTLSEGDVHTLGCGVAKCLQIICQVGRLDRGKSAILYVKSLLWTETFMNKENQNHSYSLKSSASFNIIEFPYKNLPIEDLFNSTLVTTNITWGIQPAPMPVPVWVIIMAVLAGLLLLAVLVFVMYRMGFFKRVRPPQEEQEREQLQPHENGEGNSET
Experiment: Binding of FITC-labeled sPLA2-IIA to αvβ3 on the cell surface (flow cytometry)
Type: cell-based, human
Conditions: 10 μg/ml, 10 mM Mg2+, room temperature, 30 min
Excerpt: FIG. 1. sPLA2-IIA binding to integrin αvβ3. a) Cell adhesion to sPLA2-IIA in an αvβ3- and proteoglycans-dependent manner. Wells of a 96-well microtiter plate were coated with sPLA2-IIA at indicated coating concentrations. Remaining protein-binding sites were blocked with BSA. CHO cells expressing recombinant αvβ3 (β3-CHO), mock-transfected CHO cells, proteoglycans-deficient CHO cell variant (pgs745), expressing recombinant αvβ3 (β3-745), and mock-transfected pgs745 cells (10^5 cells per well in 100 μl Tyrodes-HEPES with 1 mM MgCl2) were added to the wells. After incubating for 1 h at 37° C., unbound cells were removed by gentle rinsing and bound cells were quantified using endogenous phosphatase activity (Prater, C. A. et al., J. Cell Biol., 112:1031-1040 (1991)). Data is shown as means+/−SEM of triplicate experiments. b) Effect of anti-(33 mAb 7E3 on adhesion of β3-CHO cells to immobilized sPLA2-IIA. […] Bound FITC (FL1) and PE (FL2) were quantified in flow cytometry. […] Bound αvβ3 was detected using peroxidase-conjugated anti-6His antibody. Bound peroxidase activity was measured. […]
Binding of FITC-labeled sPLA2-IIA to integrins on the cell surface sPLA2-IIA was labeled with FITC using Fluorescein labeling kit (Pierce) according to the manufacturer's instructions. […] Bound FITC (FL1) and PE (FL2) were quantified in flow cytometry.

B1: FITC-sPLA2-IIA: sPLA2-IIA labeled with FITC using Fluorescein labeling kit (conjugate)
chain: NLVNFHRMIKLTTGKEAALSYGFYGCHCGVGGRGSPKDATDRCCVTHDCCYKRLEKRGCGTKFLSYKFSNSGSRITCAKQDSCRSQLCECDKAAATCFARNKTTYNKKYQYYSNKHCRGSTPRC
modifications: left off: small tags and cut ends
notes: sPLA2-IIA labeled with FITC using Fluorescein labeling kit
For B1, the “binding to cells expressing high-level αvβ3 vs little αvβ3” value was “much higher levels”.
